Experimental data reported in publication PMC7857400.

Molecular target: SARS-CoV-2 spike protein receptor binding domain (RBD) (SARS-CoV-2) (UniProt P0DTC2)

| Substance | IC50 of neutralisation, pseudovirus luciferase assay |
| --- | --- |
| homotrimeric Nb20 (Nb20_(3)) | 4.1 pM |
| homotrimeric Nb21 (Nb21_(3)) | 1.3 pM |
